Residue numbers refer to the chain shown, from its start.
B1: The PAI-2 derived mutant, 88 (designed binder)
chain: VDCSEYPKPACGRTGHPLCGSDNKTYGNKCNFCNAVVESNGTLTLSHFGKC
B2: The Nexin-1 derived mutant, 91 (designed binder)
chain: B1 chain with G12A, T14S, G15S, H16A
B3: The Plasminogen derived mutant, 90 (designed binder)
chain: B1 chain with T14V, G15V, H16G
B4: The PAI-1 derived mutant, 89 (designed binder)
chain: B1 chain with G12A, T14M, G15A, H16A

Target: T1, Urokinase plasminogen activator (Homo sapiens (Human), UniProt P00749)
Assay: inhibition of UK (35 nM) activity on S-2288; Ki as slope of [I]o/(1-a) vs. 1/a

Ki	Binder
40 nM	B1
120 nM	B2
106 nM	B3
0.31 nM	B4

Target: T1, Urokinase plasminogen activator
Assay: inhibition of UK activity; Ki by non-linear regression (Enzfitter) of free enzyme versus inhibitor concentration
Protocol: Fractional enzyme activities for each inhibitor-UK interaction of the above discussed inhibitors were determined by the assay method of Empie and Laskowski (Empie, M. W. et al., *Biochem.* 21:2274–2284 (1982)), as adapted from Green and Work (Green, N. M. et al., Biochem. J. 54:347–352 (1953)). The concentration of UK used for these reactions was 35 nM. The reactions were carried out in Buffer C. […] These five mutants include the four detailed above (88, 89, 80, AND 91), and also a mutant with arginine at the P1 site of OM3TKY (P1-Arg). […] The values for PSTI, PAI-1, PAI-2, and Nexin-1 were obtained from Turpeinen, U. et al. (*Biochem. J.* 254:911–914 (1988)), Kruithof, C.K.O. et al. (Thromb.-Haemost. 55::65–68 (1986)), Christensen, U. et al. (Thromb.-Haemost. 48:24–26 (1982)), and Stein, P. E. et al. (*Nature* 347:99–102 (1990)), respectively.
K_i values for the wild-type and mutant inhibitors versus urokinase were also determined by non-linear regression of the following equation: […]
The non-linear regression was done using the program Enzfitter, by Robin Leatherbarrow. E_o represents a total enzyme concentration in the reaction, I_o represents total inhibitor concentration, E is the free enzyme for a given inhibitor concentration and K_i is the equilibrium constant for the inhibitor. E and K_i are the unknowns in the equation, and are solved for during the regression analysis. Enzyme and inhibitor concentrations used were determined as mentioned above.

Ki	Binder
67.6 nM	B1
505 nM	B2
51.3 nM	B3
35.9 nM	B4

— patent US5550213, “Inhibitors of urokinase plasminogen activator” (Rutgers, The State University of New Jersey, dated 1996)
